Laboratory results published in the supplement of paper PMC5998384.

Columns and labels:
[1] = test system: HeLa Kyoto; assay: solubility in G1/S (NP-40 vs SDS abundance) (log2 ratio); higher = more soluble; details: cell cycle stage: G1/S
[2] = test system: HeLa Kyoto; assay: solubility change mitosis vs G1/S (difference of NP-40 vs SDS log2 ratios) (log2 ratio difference); higher = more soluble in mitosis
[3] = test system: HeLa Kyoto; assay: melting temperature (median over replicates), in situ; higher = more thermally stable
[4] = test system: HeLa Kyoto; assay: thermal stability score vs G1/S (z-score of summed log2 fold changes over temperatures); higher = more thermally stable than in G1/S
[5] = cell cycle stage: early G1 (4.5 h after nocodazole release)
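Throughout, for melting temperature (median over replicates), in situ: HeLa Kyoto cells synchronized by double thymidine or nocodazole block, proteins quantified by TMT10plex mass spectrometry, three independent biological replicates.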
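Throughout, for solubility change mitosis vs G1/S (difference of NP-40 vs SDS log2 ratios): synchronized HeLa Kyoto cells (double thymidine block for G1/S, nocodazole release for mitosis), protein amounts in NP-40 versus SDS lysates quantified by mass spectrometry, three biological replicates.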
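Throughout, for solubility in G1/S (NP-40 vs SDS abundance): HeLa Kyoto cells arrested at G1/S by double thymidine block, proteins quantified by TMT10plex mass spectrometry in mild NP-40 versus SDS extracts, three biological replicates.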
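Throughout, for thermal stability score vs G1/S (z-score of summed log2 fold changes over temperatures): synchronized HeLa Kyoto cells, proteins quantified by TMT10plex mass spectrometry, three biological replicates, mitosis taken 0.5 h after nocodazole release, G1/S directly after double thymidine block.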

In the case of “MEAPLQTGMMGTSSHGLATNSSGAKVAERDGFQDVLAPGEGSAGRICGAQPVPFVPQVLGVMIGAGVAVVVTAVLILLVVRRLRVPKTPAPDGPRYRFRKRDKVLFYGRKIMRKVSQSTSSLVDTSVSATSRPRMRKKLKMLNIAKKILRIQKETPTLQRKEPPPAVLEADLTEGDLANSHLPSEVLYMLKNVRVLGHFEKPLFLELCRHMVFQRLGQGDYVFRPGQPDASIYVVQDGLLELCLPGPDGKECVVKEVVPGDSVNSLLSILDVITGHQHPQRTVSARAARDSTVLRLPVEAFSAVFTKYPESLVRVVQIIMVRLQRVTFLALHNYLGLTNELFSHEIQPLRLFPSPGLPTRTSPVRGSKRMVSTSATDEPRETPGRPPDPTGAPLPGPTGDPVKPTSLETPSAPLLSRCVSMPGDISGLQGGPRSDFDMAYERGRISVSLQEEASGGSLAAPARTPTQEPREQPAGACEYSYCEDESATGGCPFGPYQGRQTSSIFEAAKQELAKLMRIEDPSLLNSRVLLHHAKAGTIIARQGDQDVSLHFVLWGCLHVYQRMIDKAEDVCLFVAQPGELVGQLAVLTGEPLIFTLRAQRDCTFLRISKSDFYEIMRAQPSVVLSAAHTVAARMSPFVRQMDFAIDWTAVEAGRALYRQGDRSDCTYIVLNGRLRSVIQRGSGKKELVGEYGRGDLIGVVEALTRQPRATTVHAVRDTELAKLPEGTLGHIKRRYPQVVTRLIHLLSQKILGNLQQLQGPFPAGSGLGVPPHSELTNPASNLATVAILPVCAEVPMVAFTLELQHALQAIGPTLLLNSDIIRARLGASALDSIQEFRLSGWLAQQEDAHRIVLYQTDASLTPWTVRCLRQADCILIVGLGDQEPTLGQLEQMLENTAVRALKQLVLLHREEGAGPTRTVEWLNMRSWCSGHLHLRCPRRLFSRRSPAKLHELYEKVFSRRADRHSDFSRLARVLTGNTIALVLGGGGARGCSHIGVLKALEEAGVPVDLVGGTSIGSFIGALYAEERSASRTKQRAREWAKSMTSVLEPVLDLTYPVTSMFTGSAFNRSIHRVFQDKQIEDLWLPYFNVTTDITASAMRVHKDGSLWRYVRASMTLSGYLPPLCDPKDGHLLMDGGYINNLPADIARSMGAKTVIAIDVGSQDETDLSTYGDSLSGWWLLWKRLNPWADKVKVPDMAEIQSRLAYVSCVRQLEVVKSSSYCEYLRPPIDCFKTMDFGKFDQIYDVGYQYGKAVFGGWSRGNVIEKMLTDRRSTDLNESRRADVLAFPSSGFTDLAEIVSRIEPPTSYVSDGCADGEESDCLTEYEEDAGPDCSRDEGGSPEGASPSTASEMEEEKSILRQRRCLPQEPPGSATDA [PNPLA6]”, the “solubility in G1/S (log2)” value [1] is reported as -0.179, the “solubility change mitosis (log2)” value [2] is reported as -0.0785 and the melting temperature ([3]; cell cycle stage: G1/S) is reported as 51.4 °C. For the same substance, the melting temperature ([3]; cell cycle stage: mitosis) was 50.8 °C, the thermal stability score [4, 5] was -0.313 and the thermal stability score ([4]; cell cycle stage: mitosis) was -1.07.
TRIP12 was tested, and the “solubility in G1/S (log2)” value [1] was -0.461, the “solubility change mitosis (log2)” value [2] was 0.333 and the melting temperature ([3]; cell cycle stage: G1/S) was 48.4 °C. For the same substance, the melting temperature ([3]; cell cycle stage: mitosis) was 48.7 °C, the thermal stability score [4, 5] was -0.291 and the thermal stability score ([4]; cell cycle stage: mitosis) was 0.532.
For “MNLASQSGEAGAGQLLFANFNQDNTEVKGASRAAGLGRRAVVWSLAVGSKSGYKFFSLSSVDKLEQIYECTDTEDVCIVERLFSSSLVAIVSLKAPRKLKVCHFKKGTEICNYSYSNTILAVKLNRQRLIVCLEESLYIHNIRDMKVLHTIRETPPNPAGLCALSINNDNCYLAYPGSATIGEVQVFDTINLRAANMIPAHDSPLAALAFDASGTKLATASEKGTVIRVFSIPEGQKLFEFRRGVKRCVSICSLAFSMDGMFLSASSNTETVHIFKLETVKEKPPEEPTTWTGYFGKVLMASTSYLPSQVTEMFNQGRAFATVRLPFCGHKNICSLATIQKIPRLLVGAADGYLYMYNLDPQEGGECALMKQHRLDGSLETTNEILDSASHDCPLVTQTYGAAAGKGTYVPSSPTRLAYTDDLGAVGGACLEDEASALRLDEDSEHPPMILRTD [WIPI2]”, the “solubility in G1/S (log2)” value [1] was 0.0209, the “solubility change mitosis (log2)” value [2] was -0.0675 and the melting temperature ([3]; cell cycle stage: G1/S) was 50.4 °C. It also gave a melting temperature ([3]; cell cycle stage: mitosis) of 51.1 °C, a thermal stability score [4, 5] of -0.953 and a thermal stability score ([4]; cell cycle stage: mitosis) of -0.659.
With “MRWILFIGALIGSSICGQEKFFGDQVLRINVRNGDEISKLSQLVNSNNLKLNFWKSPSSFNRPVDVLVPSVSLQAFKSFLRSQGLEYAVTIEDLQALLDNEDDEMQHNEGQERSSNNFNYGAYHSLEAIYHEMDNIAADFPDLARRVKIGHSFENRPMYVLKFSTGKGVRRPAVWLNAGIHSREWISQATAIWTARKIVSDYQRDPAITSILEKMDIFLLPVANPDGYVYTQTQNRLWRKTRSRNPGSSCIGADPNRNWNASFAGKGASDNPCSEVYHGPHANSEVEVKSVVDFIQKHGNFKGFIDLHSYSQLLMYPYGYSVKKAPDAEELDKVARLAAKALASVSGTEYQVGPTCTTVYPASGSSIDWAYDNGIKFAFTFELRDTGTYGFLLPANQIIPTAEETWLGLKTIMEHVRDNLY [CPA4]” the “solubility in G1/S (log2)” value [1] was 0.184, the “solubility change mitosis (log2)” value [2] was 0.0829 and the melting temperature ([3]; cell cycle stage: G1/S) was 57.4 °C. For the same substance, the melting temperature ([3]; cell cycle stage: mitosis) was 58.7 °C, the thermal stability score [4, 5] was 1.94 and the thermal stability score ([4]; cell cycle stage: mitosis) was 1.93.
In the case of PCNT, the “solubility in G1/S (log2)” value [1] is reported as -0.221, the “solubility change mitosis (log2)” value [2] is reported as -0.162 and the melting temperature ([3]; cell cycle stage: G1/S) is reported as 50.8 °C. For the same substance, the melting temperature ([3]; cell cycle stage: mitosis) was 52.9 °C, the thermal stability score [4, 5] was 2.3 and the thermal stability score ([4]; cell cycle stage: mitosis) was 2.45.
With “MGKKGKVGKSRRDKFYHLAKETGYRSRSAFKLIQLNRRFQFLQKARALLDLCAAPGGWLQVAAKFMPVSSLIVGVDLVPIKPLPNVVTLQQDITTERCRQALRKELKTWKVDVVLNDGAPNVGASWVHDAYSQAHLTLMALRLACDFLARGGSFITKVFRSRDYQPLLWIFQQLFRRVQATKPQASRHESAEIFVVCQGFLAPDKVDSKFFDPKFAFKEVEVQAKTVTELVTKKKPKAEGYAEGDLTLYHRTSVTDFLRAANPVDFLSKASEIMVDDEELAQHPATTEDIRVCCQDIRVLGRKELRSLLNWRTKLRRYVAKKLKEQAKALDISLSSGEEDEGDEEDSTAGTTKQPSKEEEEEEEEEQLNQTLAEMKAQEVAELKRKKKKLLREQRKQRERVELKMDLPGVSIADEGETGMFSLSTIRGHQLLEEVTQGDMSAADTFLSDLPRDDIYVSDVEDDGDDTSLDSDLDPEELAGVRGHQGLRDQKRMRLTEVQDDKEEEEEENPLLVPLEEKAVLQEEQANLWFSKGSFAGIEDDADEALEISQAQLLFENRRKGRQQQQKQQLPQTPPSCLKTEIMSPLYQDEAPKGTEASSGTEAATGLEGEEKDGISDSDSSTSSEEEESWEPLRGKKRSRGPKSDDDGFEIVPIEDPAKHRILDPEGLALGAVIASSKKAKRDLIDNSFNRYTFNEDEGELPEWFVQEEKQHRIRQLPVGKKEVEHYRKRWREINARPIKKVAEAKARKKRRMLKRLEQTRKKAEAVVNTVDISEREKVAQLRSLYKKAGLGKEKRHVTYVVAKKGVGRKVRRPAGVRGHFKVVDSRMKKDQRAQQRKEQKKKHKRK [FTSJ3]” the “solubility in G1/S (log2)” value [1] was -2.41, the “solubility change mitosis (log2)” value [2] was 1.11 and the melting temperature ([3]; cell cycle stage: G1/S) was 49.7 °C. For the same substance, the melting temperature ([3]; cell cycle stage: mitosis) was 52 °C, the thermal stability score [4, 5] was 4.05 and the thermal stability score ([4]; cell cycle stage: mitosis) was 7.76.
